Assay [1] concerns the target T1, recombinant TR protein (extracellular domain of TR, amino acids 1-302, C-terminal 6xHis tag) (human) (UniProt Q9UIK5).
T1 sequence (chain, glycosylated): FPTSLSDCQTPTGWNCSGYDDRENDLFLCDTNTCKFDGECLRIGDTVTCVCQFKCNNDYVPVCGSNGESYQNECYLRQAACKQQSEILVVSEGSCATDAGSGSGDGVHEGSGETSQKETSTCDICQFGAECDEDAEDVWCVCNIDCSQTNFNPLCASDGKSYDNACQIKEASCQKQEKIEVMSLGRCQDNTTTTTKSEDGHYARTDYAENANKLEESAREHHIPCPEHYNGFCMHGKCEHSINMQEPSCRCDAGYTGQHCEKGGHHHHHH
Nature of the assay: ICELISA against direct ELISA on recombinant TR. A general note: In an ELISA, binding on a coated surface is turned into a signal by an enzyme label.

The target of assay [2] is T2, native tomoregulin (TR) on TR-expressing cells (PC3-TR, CHO-TR) (human) (UniProt Q9UIK5).
T2 sequence (looked up): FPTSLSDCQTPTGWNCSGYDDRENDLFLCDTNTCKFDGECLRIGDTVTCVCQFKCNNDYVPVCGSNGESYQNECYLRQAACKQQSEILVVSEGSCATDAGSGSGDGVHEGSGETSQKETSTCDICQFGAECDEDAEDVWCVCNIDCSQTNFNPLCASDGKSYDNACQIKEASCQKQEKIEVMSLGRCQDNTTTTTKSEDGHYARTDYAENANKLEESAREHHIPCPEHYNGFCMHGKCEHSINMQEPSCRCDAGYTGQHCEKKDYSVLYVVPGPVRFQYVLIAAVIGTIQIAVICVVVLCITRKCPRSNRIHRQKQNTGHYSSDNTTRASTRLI
The assay is described as follows: live cell ICELISA on PC3-TR cells; based on total scFv concentration.

Assay [3] addresses T1, recombinant TR protein (extracellular domain of TR, amino acids 1-302, C-terminal 6xHis tag) (human). The assay is described as follows: ICELISA on recombinant TR, scFv pre-incubated with anti-E-tag antibody; based on total scFv.
Assay [4] has as its target T3, recombinant TR protein (extracellular domain of TR, amino acids 1-302, C-terminal 6xHis tag) (human, UniProt Q9UIK5 41-302, glycosylated).
T3 construct: range 41-302; Secreted from baculovirus-infected High Five cells, purified by Ni chelate and size exclusion chromatography; also called 6×his-tagged recombinant TR; recombinant protein
T3 sequence: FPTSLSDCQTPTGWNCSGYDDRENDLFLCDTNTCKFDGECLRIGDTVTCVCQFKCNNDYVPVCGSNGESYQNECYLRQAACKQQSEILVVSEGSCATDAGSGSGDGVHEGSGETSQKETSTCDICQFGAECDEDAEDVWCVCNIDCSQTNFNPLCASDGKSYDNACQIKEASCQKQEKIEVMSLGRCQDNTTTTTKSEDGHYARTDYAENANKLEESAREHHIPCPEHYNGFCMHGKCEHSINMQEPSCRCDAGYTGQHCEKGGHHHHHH
Nature of the assay: direct ELISA on recombinant TR, monomeric scFv.

The target of assay [5] is T4, native tomoregulin (TR) on TR-expressing cells (PC3-TR, CHO-TR) (human, UniProt Q9UIK5 41-374).
T4 construct: whole, on cells; also called native TR; native receptor
T4 sequence (looked up): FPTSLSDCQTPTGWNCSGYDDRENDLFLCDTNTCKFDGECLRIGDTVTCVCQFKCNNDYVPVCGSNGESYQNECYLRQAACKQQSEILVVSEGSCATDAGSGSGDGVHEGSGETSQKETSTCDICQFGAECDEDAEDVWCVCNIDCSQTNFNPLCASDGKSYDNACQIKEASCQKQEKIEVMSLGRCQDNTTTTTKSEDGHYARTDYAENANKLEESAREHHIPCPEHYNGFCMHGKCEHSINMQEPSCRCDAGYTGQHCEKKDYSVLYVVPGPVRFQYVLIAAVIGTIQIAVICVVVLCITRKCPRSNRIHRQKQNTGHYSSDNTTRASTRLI
The assay is described as follows: FACS on PC3-TR cells. As to the method: (§1) Cells were detached with Cell Dissociation Buffer (GIBCO Invitrogen, Carlsbad, Calif.) and collected by centrifugation of 3000 rpm at 4° C. for 5 min. 2×10⁵ cells in 100 μl PBS buffer were incubated for 1 h at 4° C. with anti-TR antibodies at a range of concentrations. Excess antibody was washed away with 1 ml PBS followed by centrifugation, and cells were resuspended and incubated for 45 min at 4° C. in PBS 100 μl containing anti-mouse IgG-FITC (10 μg/mL, Vector Labs Inc.) as the second antibody. Excess antibody was washed away with 1 mL PBS and by centrifugation. Cells were resuspended in 200 μL PBS containing 5 μL propidium iodide (1 μg/ml). Fluorescence intensity was measured on a FACS Calibur (Becton Dickinson). Experiments were performed in triplicate.
(§2) Binding of AT-19 IgG to PC3 cells expressing TR was compared to mouse anti-TR IgG 2H8 by FACS. 2H8 is a murine IgG1 monoclonal antibody that reacts with the follistatin domains of the extra-cellular region of human TR protein (Afar et al., Mol. Cancer Ther., 3:921, 2004). It is used throughout as a positive control antibody.

For assay [6], the target named is T4, native tomoregulin (TR) on …. The assay is described as follows: live cell ELISA on PC3-TR cells.
Assay [7] has the same target. Nature of the assay: FACS on PC3-TR cells, IgG against scFv monomer; not exactly quantified. As to the method:
as §1, §2

B1: AT-19 scFv immune complex (AT-19 scFv dimerized by pre-incubation with mouse anti-E-tag monoclonal IgG) (protein, part only; not given: E-tag and anti-E-tag IgG, not shown: small tags and cut ends)
scFv, part: QVQLVQSGGGLVQPGGSLRLSCAASGFTFSNYAMSWVRQAPGKGLEWVSAISGNGGATYYADSMKGRFTISRDNSKNTLSLQLNSLRVEDTAVYYCAKSLIWGYDRGVDYWGQGTLVTVSAGGGGSGGGGSGGGGSGAPHVILTQPPSASGTPGQRVTISCSGGASNIGTNSVNWYQQLPGTAPKLLLYTNDHRPSGVPDRFSGKSGTSASLAISGLQAEDEGDYYCAAWDDTMNGHVVFGGGTKLTVLG
In general, EC50 refers to the concentration needed to bring the measured effect to its halfway point. With B1, the fold improvement of EC50 against monomeric AT-19 scFv in assay [1] is > 20 fold. Besides, the EC50 in assay [2] is 8.5 nM; in assay [3], 1.3 nM.

B2: AT-19 scFv (monomeric, monovalent single-chain anti-TR antibody) (scFv)
scFv: QVQLVQSGGGLVQPGGSLRLSCAASGFTFSNYAMSWVRQAPGKGLEWVSAISGNGGATYYADSMKGRFTISRDNSKNTLSLQLNSLRVEDTAVYYCAKSLIWGYDRGVDYWGQGTLVTVSAGGGGSGGGGSGGGGSGAPHVILTQPPSASGTPGQRVTISCSGGASNIGTNSVNWYQQLPGTAPKLLLYTNDHRPSGVPDRFSGKSGTSASLAISGLQAEDEGDYYCAAWDDTMNGHVVFGGGTKLTVLG
notes: also called monovalent AT-19 scFv; monomeric AT-19 scFv; not shown: E-tag from the pZ603 (pCANTAB5E-based) vector
In the case of B2, in assay [4], the 50% effective concentration (EC50) is 22 nM.

B3: AT-19 IgG (fully human IgG1 format of AT-19) (antibody, V domains shown)
VH: QVQLVQSGGGLVQPGGSLRLSCAASGFTFSNYAMSWVRQAPGKGLEWVSAISGNGGATYYADSMKGRFTISRDNSKNTLSLQLNSLRVEDTAVYYCAKSLIWGYDRGVDYWGQGTLVTVSA
VL: HVILTQPPSASGTPGQRVTISCSGGASNIGTNSVNWYQQLPGTAPKLLLYTNDHRPSGVPDRFSGKSGTSASLAISGLQAEDEGDYYCAAWDDTMNGHVVFGGGTKLTVLG
notes: also called fully human AT-19 IgG
Take B3: the EC50 in assay [5] turned out to be 0.17 nM; in assay [6] it was 0.44 nM. The “avidity effect (fold) against the scFv monomer” value in assay [7] was > 20 fold.

These data come from patent US20060292074A1 (SCHERING AKTIENGESELLSCHAFT, published 2006).
